Experiment [1] addresses hemagglutinin of A/Brisbane/10/2007 (H3N2), in the influenza virus antigen standard (Influenza A virus A/Brisbane/10/2007 …, UniProt A8W8K8, strain). The experiment in a line: ELISA. The settings on record: one partner purified. (An ELISA detects its analyte on a solid surface through an enzyme-linked reagent.)
Experiment [2] addresses recombinant H1-HA (D18-I530), A/California/06/2009 (H1N1)pdm09 (Influenza A virus A/California/06/2009 …, UniProt C3W5S1, strain). In words: SPR. To be noted: both partners purified.
Experiment [3] concerns the target recombinant HA1 domain (D18-R344), A/California/06/2009 (H1N1)pdm09 (Influenza A virus A/California/06/2009 …, UniProt C3W5S1, strain). In words: SPR. The settings on record: both partners purified.
The target of experiment [4] is hemagglutinin of A/California/07/2009 (H1N1)pdm09, in the influenza virus antigen standard (Influenza A virus A/California/07/2009 …, UniProt C3W5X2, strain). In words: ELISA. The settings on record: one partner purified.
Experiment [5] has as its target phage displayed HA gene fragment P66-I282 (Influenza A virus A/California/07/2009 …, UniProt C3W5X2). The experiment in a line: ELISA. The settings on record: both partners purified.
Experiment [6] has as its target phage displayed HA gene fragment L193-K225 (Influenza A virus A/California/07/2009 …, UniProt C3W5X2). In words: ELISA. To be noted: both partners purified.
Experiment [7] concerns the target T1, recombinant H3-HA, A/Brisbane/10/2007 (H3N2) (Influenza A virus A/Brisbane/10/2007 …, UniProt A8W8K8, strain).
T1 construct: source: bought: Protein Sciences
In words: SPR; data not shown: sdAbs on immobilised recombinant H3-HA and H7-HA. The settings on record: both partners purified. (Surface plasmon resonance follows binding to a sensor surface in real time, without labels.)

For experiment [8], the target named is T2, recombinant H7-HA, A/Netherlands/219/2003 (H7N7) (Influenza A virus …, UniProt Q6VMK1).
T2 construct: source: bought: Protein Sciences
The experiment is described as above. The settings on record: both partners purified.

Experiment [9] addresses recombinant H5-HA, A/Vietnam/1203/2004 (H5N1) (Influenza A virus A/Vietnam/1203/2004 …, UniProt Q5EP31, strain). In words: SPR. The settings on record: both partners purified.
Experiment [10] deals with T3, recombinant H2-HA, A/Japan/305/57 (H2N2) (Influenza A virus A/Japan/305/1957 …, UniProt P03451, strain).
T3 construct: source: bought: E-Enzymes (Protein Sciences in the SPR methods)
The experiment in a line: SPR. The settings on record: both partners purified.

The target of experiment [11] is recombinant H9-HA, A/HongKong/1073/99 (H9N2) (Influenza A virus A/Hong Kong/1073/99 …, UniProt Q9ICY5, strain). In words: SPR. To be noted: both partners purified.
For experiment [12], the target named is phage displayed HA gene fragment D363-G478 (Influenza A virus A/California/07/2009 …, UniProt C3W5X2). In words: ELISA. The settings on record: both partners purified.

B1: R1a-C5 (VHH)
VHH: QVQLVESGGGLVQPGGSLRLSCAASNDIFSFYTMGWYLQAIGKQREPVAVIGNGGNTNYAESVKGRFTISRDGAKNTAYLQMNSLKPEDTAVYYCMASGPGGLNVWGQGTQVTVSS
notes: source: E. coli WK6 periplasm, purified (Talon IMAC, Superdex 75 SEC)
One may read the Kd as the constant that tells how readily two partners part at equilibrium. Usually koff stands for a measure of how fast the partners let go of each other. By kon is commonly meant the rate constant with which the complex forms. For the molecule B1, the binding result in [1] is given as “no binding”; in experiment [4], “binds”; in experiment [5], “binds”; in experiment [6], “binds”; in experiment [7], “no binding”; in experiment [8], “no binding”. The Kd is 37.6 nM in [2] and 38.4 nM in experiment [3]. In addition, in [2], the koff is 0.0206 s⁻¹. In addition, in experiment [2], the kon stood at 548000 M⁻¹ s⁻¹.

B2: R2a-E8 (VHH)
VHH: QLQLVESGGGLVQPGGSLRLSCTASGDIFVMYMIDWYRQAPGKQRELVASIDGRGTPMYADSVKGRFTISRDNAKNTVYLQMNSLKPEDTAVYSCHAKSPLVDNEYWGQGTQVTVSS
notes: as for B1
Regarding B2, the binding result in [1] is on record as “no binding”; in experiment [9], “no binding”; in experiment [10], “no binding”; in experiment [11] it was “no binding”; in experiment [4], “binds”; in experiment [5] it was “no binding”. For the same molecule, the binding result in experiment [6], in experiment [12], in experiment [7] and in [8] was “no binding” each time. In addition, the Kd in experiment [2] was 0.79 nM. Also, in [2], the koff was determined as 0.000148 s⁻¹. Further, in experiment [2], the kon stood at 187000 M⁻¹ s⁻¹.

B3: R2a-B9 (VHH)
VHH: QVQLVESGGGLVQPGGSLRLSCAASGSAFSINAMGWYRQAPGEEREFVAAITAGGNTYYADSAKARFTISRDNAKNMLYLQMNSLKPEDTAMYYCAATKAFGIATITADYELWGQGTQVTVSS
notes: as for B1
As to B3, the binding result in experiment [1] is reported as “no binding”; in experiment [9] it was “no binding”; in experiment [10] it was “no binding”; in [11], “no binding”; in experiment [4] it was “binds”; in experiment [5], “no binding”. Moreover, the binding result in experiment [6], in [12], in experiment [7] and in [8] was “no binding” throughout. In addition, the dissociation constant Kd in [2] was 0.16 nM. Besides, the koff in experiment [2] is 4.94e-05 s⁻¹. Further, the kon in [2] turned out to be 312000 M⁻¹ s⁻¹.

B4: R2a-G9 (VHH)
VHH: QVQLVESGGGLVQPGGSLRLSCAASDNIFSFYTMGWYRQSPGKERELVAVIGNGGNTNYADSVKGRFTISRDNGKNKAHLQMNSLKPEDTAVYYCKASGPGGVEVWGQGTQVTVSS
notes: as for B1
Turning to B4, the binding result in [1] is listed as “no binding”; in [9], “no binding”; in experiment [10], “no binding”; in experiment [11] it was “no binding”; in [4], “binds”; in experiment [5], “binds”. Moreover, the binding result in [6], in experiment [7] and in experiment [8] was “no binding” each time. Also, the results for the Kd in experiment [2] and in experiment [3] were 22.1 nM and 68.7 nM, respectively. Also, in experiment [2], the koff is 0.00392 s⁻¹. Besides, the kon in [2] stood at 177000 M⁻¹ s⁻¹.

B5: R2a-H9 (VHH)
VHH: QVQLVESGGGLVQPGGSLRLSCAASTNIASFYTMGWYRQTPGQQRDVVAVIGNGGNTNYADSVKGRFTISRDGAKNTAHLQMNSLKPEDTDVYYCKASGPGGVILWGQGTQVTVSS
notes: as for B1
Consider B5, for which the binding result in experiment [1] was “no binding”; in experiment [9], “no binding”; in [10], “no binding”; in experiment [11], “no binding”; in [4] it was “binds”; in experiment [5] it was “binds”. Moreover, the binding result in [6], in experiment [7] and in experiment [8] was “no binding” throughout. Also, the Kd in experiment [2] stood at 2.77 nM; in experiment [3], 468 nM. Also, the koff in experiment [2] stood at 0.000384 s⁻¹. In addition, the kon in [2] amounted to 139000 M⁻¹ s⁻¹.

B6: R1a-G5 (VHH)
VHH: QLQLVESGGGLVQPGGSLRLSCAASGSISRIVTMGWYRQASGKERELVAVIGNYGNTNYADSVKGRFTVSRDNAKDTAYLQMNGLNVEDTAIYYCKTSTTTPPYEYWGQGTQVTVSS
notes: as for B1
For the molecule B6, the binding result is “no binding” in experiment [1]; “no binding” in [9]; “no binding” in [10]; “no binding” in [11]; “binds” in [4]; “binds” in experiment [5]. The binding result in experiment [6], in experiment [12], in [7] and in experiment [8] was “no binding” each time. The values for the Kd in experiment [2] and in [3] were 5.85 nM and 15.6 nM, respectively. Moreover, the koff in experiment [2] came to 0.00504 s⁻¹. Also, in [2], the kon was determined as 862000 M⁻¹ s⁻¹.

B7: R1a-F4 (VHH)
VHH: QVQLVESGGGLVQPGGSLRLSCAASGSISRIVTMGWYRQGPGKERELVAVIGNYGNTNYADSVKGRFTVSRDNAKDTAYLQMNNLNVEDTAMYYCKCSTTTPPHEFWGQGTQVTVSS
notes: as for B1
Consider B7, for which the binding result is “no binding” in experiment [1]; “no binding” in experiment [9]; “no binding” in experiment [10]; “no binding” in experiment [11]; “binds” in [4]; “binds” in experiment [5]. For the same molecule, the binding result in [6], in experiment [12], in experiment [7] and in experiment [8] was “no binding” each time. In addition, the Kd in experiment [2] was determined as 6.46 nM; in [3], 4.74 nM. Further, in experiment [2], the koff worked out at 0.0022 s⁻¹. The kon in experiment [2] is 340000 M⁻¹ s⁻¹.

B8: R1a-F5 (VHH)
VHH: QLQLVESGGGLVQVGGSLRLSCAASGFPFDGYAIAWFRQAPGKEREGVSCRASDGNTYYAESLKGRLTMSTDNAKNTVYLQMNSLKPEDTAVYYCAAASWVASLWSPSEYDYWGQGTQVTVSS
notes: as for B1
Consider B8, for which the binding result in experiment [1] was “no binding”; in [9], “no binding”; in experiment [10], “no binding”; in experiment [11] it was “no binding”; in experiment [4], “binds”; in experiment [5], “binds”. In addition, the binding result in experiment [6], in [12], in experiment [7] and in [8] was “no binding” throughout. Moreover, the values for the Kd in experiment [2] and in experiment [3] were 10 nM and 6.06 nM, respectively. Also, the koff in experiment [2] amounted to 0.000414 s⁻¹. The kon in experiment [2] amounted to 40200 M⁻¹ s⁻¹.

B9: R1a-E5 (VHH)
VHH: QLQLVESGGGLVQPGGSLRLSCTASGFSLDNYAIGWFRRAPGEEREGVSFITSTSAVTKYADSVKGRFTISRDNAKNTVYLQMTSLKPEDTAVYYCAGTRWVPTMKADEYNYWGQGTQVTVSS
notes: as for B1
For the molecule B9, the binding result was “no binding” in experiment [1]; “no binding” in experiment [9]; “no binding” in experiment [10]; “no binding” in [11]; “binds” in [4]; “no binding” in experiment [5]. Further, the binding result in experiment [6], in [12], in experiment [7] and in [8] was “no binding” throughout. The Kd in experiment [2] is 0.79 nM. Also, the koff in experiment [2] was found to be 7.61e-05 s⁻¹. The kon in experiment [2] is 97600 M⁻¹ s⁻¹.

These data come from PMC4118869 (PLoS ONE, 2014).
